Assay results: doi:10.1101/433532

Target: recombinant CSN^ΔCSNAP complex (eight subunits, WT CSN5) (UniProt Q13098)
Experiment: native MS

For “CSNAP, recombinant subunit co-expressed in the CSN complex (natural protein)”, the stoichiometry N was 1.
